Measured values published in publication PMC12305717.
Changes are numbered by the printed parent chain. Numbers in names are those of the source. Each block holds one binder with its values, some of them ahead of it.

Assays:
[1] = molecular target: Ssa1 (yeast cytosolic Hsp70) (yeast) (UniProt P10591)
[2] = molecular target: Ssa1 (yeast cytosolic Hsp70) (yeast) (UniProt P10591); remark: listed apart in the source
[3] = molecular target: DnaK (E. coli Hsp70) (E. coli) (UniProt P0A6Y8)
Chain of DnaK (E. coli Hsp70) (E. coli) (P0A6Y8 whole entry): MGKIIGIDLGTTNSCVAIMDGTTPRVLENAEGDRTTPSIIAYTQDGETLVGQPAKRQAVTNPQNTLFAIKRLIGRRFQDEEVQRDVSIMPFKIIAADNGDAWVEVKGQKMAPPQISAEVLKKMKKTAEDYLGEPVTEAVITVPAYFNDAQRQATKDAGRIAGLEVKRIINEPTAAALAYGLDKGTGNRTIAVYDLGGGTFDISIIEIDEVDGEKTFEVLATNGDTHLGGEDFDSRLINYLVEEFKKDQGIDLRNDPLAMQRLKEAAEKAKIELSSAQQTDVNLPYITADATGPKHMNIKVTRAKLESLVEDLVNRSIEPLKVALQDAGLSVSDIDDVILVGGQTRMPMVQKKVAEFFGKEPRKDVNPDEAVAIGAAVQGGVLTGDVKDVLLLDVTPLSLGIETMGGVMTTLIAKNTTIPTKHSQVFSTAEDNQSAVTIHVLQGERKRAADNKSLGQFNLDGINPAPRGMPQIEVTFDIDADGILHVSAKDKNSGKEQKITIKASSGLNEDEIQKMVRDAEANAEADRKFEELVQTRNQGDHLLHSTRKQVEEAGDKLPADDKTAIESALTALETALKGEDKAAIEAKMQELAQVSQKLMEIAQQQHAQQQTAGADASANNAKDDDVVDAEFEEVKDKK

Chain of Ssa1 (yeast cytosolic Hsp70) (yeast) (P10591 whole entry): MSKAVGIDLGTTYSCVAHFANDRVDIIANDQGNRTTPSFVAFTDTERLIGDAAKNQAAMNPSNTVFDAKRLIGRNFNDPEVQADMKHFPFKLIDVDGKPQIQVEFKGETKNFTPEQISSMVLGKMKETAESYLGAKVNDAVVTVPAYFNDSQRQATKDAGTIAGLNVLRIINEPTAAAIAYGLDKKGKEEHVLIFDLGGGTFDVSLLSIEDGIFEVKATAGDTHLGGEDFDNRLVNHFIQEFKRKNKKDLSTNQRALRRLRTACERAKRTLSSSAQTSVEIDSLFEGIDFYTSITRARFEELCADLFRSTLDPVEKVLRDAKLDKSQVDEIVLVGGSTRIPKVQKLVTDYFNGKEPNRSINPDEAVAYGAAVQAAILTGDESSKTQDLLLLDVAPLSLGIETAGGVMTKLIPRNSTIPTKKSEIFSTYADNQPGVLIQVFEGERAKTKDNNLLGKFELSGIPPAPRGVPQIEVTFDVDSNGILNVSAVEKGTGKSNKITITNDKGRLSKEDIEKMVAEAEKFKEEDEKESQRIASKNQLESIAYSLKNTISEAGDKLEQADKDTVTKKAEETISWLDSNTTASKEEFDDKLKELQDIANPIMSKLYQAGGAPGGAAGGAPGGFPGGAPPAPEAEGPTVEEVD

EC50 of Sse1 for raising the yields of disaggregation and refolding (luciferase activity after 2 h) of pre-aggregated MlucV or luciferase by 4000 nM Ssa1 + 1000 nM Sis1 with ATP [1]: 100 nM
IC50 of excess Sse1 (above 250 nM) for inhibiting the disaggregation and refolding reaction of 4000 nM Ssa1 + 1000 nM Sis1; complete inhibition at equimolar Sse1 and Ssa1 [1]: 1200 nM
optimal concentration of WT Sse1 for activating the disaggregation/refolding of pre-aggregated luciferase by 6000 nM Ssa1 + 1000 nM Sis1 [2]: 600 nM
B1: Sse1 (yeast Hsp110), wild type (natural protein)
chain: MSTPFGLDLGNNNSVLAVARNRGIDIVVNEVSNRSTPSVVGFGPKNRYLGETGKNKQTSNIKNTVANLKRIIGLDYHHPDFEQESKHFTSKLVELDDKKTGAEVRFAGEKHVFSATQLAAMFIDKVKDTVKQDTKANITDVCIAVPPWYTEEQRYNIADAARIAGLNPVRIVNDVTAAGVSYGIFKTDLPEGEEKPRIVAFVDIGHSSYTCSIMAFKKGQLKVLGTACDKHFGGRDFDLAITEHFADEFKTKYKIDIRENPKAYNRILTAAEKLKKVLSANTNAPFSVESVMNDVDVSSQLSREELEELVKPLLERVTEPVTKALAQAKLSAEEVDFVEIIGGTTRIPTLKQSISEAFGKPLSTTLNQDEAIAKGAAFICAIHSPTLRVRPFKFEDIHPYSVSYSWDKQVEDEDHMEVFPAGSSFPSTKLITLNRTGDFSMAASYTDITQLPPNTPEQIANWEITGVQLPEGQDSVPVKLKLRCDPSGLHTIEEAYTIEDIEVEEPIPLPEDAPEDAEQEFKKVTKTVKKDDLTIVAHTFGLDAKKLNELIEKENEMLAQDKLVAETEDRKNTLEEYIYTLRGKLEEEYAPFASDAEKTKLQGMLNKAEEWLYDEGFDSIKAKYIAKYEELASLGNIIRGRYLAKEEEKKQAIRSKQEASQMAAMAEKLAAQRKAEAEKKEEKKDTEGDVDMD

concentration at which excess Sse1-K69M inhibits the disaggregation/refolding by 6000 nM Ssa1 + 1000 nM Sis1, against WT Sse1 (fold lower than WT Sse1) [2]: 4
optimal concentration of Sse1-K69M for activating the disaggregation/refolding of pre-aggregated luciferase by 6000 nM Ssa1 + 1000 nM Sis1 [2]: 200 nM
B2: Sse1-K69M (natural protein)
chain: B1 chain with K69M

EC50 of GrpE for raising the yields of disaggregation and refolding of pre-aggregated MlucV by 4000 nM DnaK + 1000 nM DnaJ [3]: 200 nM
B3: GrpE (E. coli nucleotide exchange factor) (natural protein)
chain: MSSKEQKTPEGQAPEEIIMDQHEEIEAVEPEASAEQVDPRDEKVANLEAQLAEAQTRERDGILRVKAEMENLRRRTELDIEKAHKFALEKFINELLPVIDSLDRALEVADKANPDMSAMVEGIELTLKSMLDVVRKFGVEVIAETNVPLDPNVHQAIAMVESDDVAPGNVLGIMQKGYTLNGRTIRAAMVTVAKAKA
